# ± gives the uncertainty stated by the source.
# B1: Gamma-crystallin D, residues 90 to 170; numbered along this chain, P07320 (parent)
# chain: IRLYEREDYRGQMIEFTEDCSCLQDRFRFNEIHSLNVLEGSWVLYELSNYRGRQYLLMPGDYRRYQDWGATNARVGSLRRV
# Variants of: B1
# Test: abundance fitness (aPCA) (normalised: wild type 0, dead -1); higher = more abundant; growth selection in yeast, the domain comes from the species named
# Conditions: Homo sapiens
row,Variant,abundance fitness
1,Y65E,0.192 ± 0.14
2,Y65Q,-0.028 ± 0.18
3,N30T,0.038 ± 0.18
4,N30M,-0.051 ± 0.15
5,N30K,0.107 ± 0.14
6,N30Y,-0.1 ± 0.18
7,N30D,0.018 ± 0.18
8,N30H,-0.081 ± 0.27
9,Q12G,0.04 ± 0.066
10,Q12T,-0.041 ± 0.096
11,Q12W,-0.176 ± 0.12
12,Q12M,0.062 ± 0.14
13,Q12F,-0.192 ± 0.17
14,Q12C,-0.352 ± 0.24
15,Q12K,0.052 ± 0.23
16,Q12N,0.102 ± 0.19
17,N49Y,-0.03 ± 0.19
18,N49Q,0.015 ± 0.12
19,N49F,-0.135 ± 0.19
20,N49M,0.008 ± 0.15
21,D8P,0.026 ± 0.12
22,D8I,-0.152 ± 0.23
23,D8K,0.111 ± 0.14
24,Y9M,0.064 ± 0.18

row,Variant,abundance fitness
1,Y9T,0.179 ± 0.12
2,Y9R,0.204 ± 0.058
3,Y9N,0.217 ± 0.14
4,Y9P,-0.529 ± 0.12
5,Y9W,0.036 ± 0.066
6,Y9K,0.001 ± 0.19
7,L47M,-0.162 ± 0.21
8,L47N,-0.014 ± 0.49
9,L47R,0.055 ± 0.058
10,L47Y,-0.183 ± 0.19
11,L47A,-0.037 ± 0.12
12,L47D,0.147 ± 0.14
13,L47S,0.074 ± 0.072
14,L47H,-0.072 ± 0.21
15,L47G,-0.027 ± 0.069
16,G52E,-0.493 ± 0.073
17,G52A,-0.489 ± 0.072
18,G52F,-0.583 ± 0.47
19,D61S,-0.027 ± 0.078
20,D61L,-0.093 ± 0.092
21,D61V,-0.07 ± 0.081
22,R74G,-0.011 ± 0.07
23,R74W,-0.029 ± 0.11
24,R74V,0.028 ± 0.096

row,Variant,abundance fitness
1,A73S,-0.023 ± 0.091
2,A73P,-0.175 ± 0.13
3,A73D,0.104 ± 0.13
4,M58C,0.074 ± 0.12
5,M58R,-0.02 ± 0.062
6,M58P,0.201 ± 0.11
7,M58Y,0.174 ± 0.2
8,M13W,-0.127 ± 0.099
9,M13Q,-0.115 ± 0.12
10,I32V,0.127 ± 0.12
11,R79F,-0.214 ± 0.12
12,R79E,0.113 ± 0.16
13,R79Q,0.049 ± 0.13
14,R79C,-0.355 ± 0.39
15,R79G,-0.032 ± 0.1
16,R79K,-0.048 ± 0.14
17,R79S,0.068 ± 0.093
18,R79P,-0.93 ± 0.17
19,G76S,-0.027 ± 0.096
20,G76T,-0.109 ± 0.12
21,G11P,-0.521 ± 0.12
22,G11W,-1.01 ± 0.18
23,G11N,-0.094 ± 0.16
24,G11A,0.035 ± 0.073

row,Variant,abundance fitness
1,W42T,-0.492 ± 0.15
2,W42H,-0.38 ± 0.15
3,W42M,-0.388 ± 0.099
4,W42G,-1.1 ± 0.1
5,W42Q,-0.969 ± 0.37
6,W42F,-0.105 ± 0.12
7,D19L,-0.169 ± 0.085
8,D19P,-0.003 ± 0.091
9,D19R,-0.129 ± 0.069
10,C22D,0.089 ± 0.32
11,C22R,-0.044 ± 0.071
12,C22Y,-0.009 ± 0.15
13,C22A,0.002 ± 0.1
14,C22L,-0.049 ± 0.096
15,V37C,-0.126 ± 0.2
16,V37M,-0.338 ± 0.16
17,V37F,0.159 ± 0.2
18,V37I,0.091 ± 0.19
19,V37H,-0.086 ± 0.3
20,V37D,0.165 ± 0.34
21,R28E,-0.177 ± 0.13
22,R28S,0.024 ± 0.075
23,R28P,-0.023 ± 0.1
24,R28M,0.065 ± 0.14

row,Variant,abundance fitness
1,F27S,0.011 ± 0.089
2,F27R,-0.126 ± 0.058
3,F27L,-0.105 ± 0.074
4,T71M,-0.125 ± 0.15
5,T71A,0.029 ± 0.11
6,T71G,-0.014 ± 0.074
7,T71K,-0.003 ± 0.16
8,R6L,0.012 ± 0.094
9,R6A,0.044 ± 0.094
10,R6N,0.153 ± 0.24
11,R6V,-0.035 ± 0.1
12,R6G,-0.011 ± 0.07
13,R6D,-0.172 ± 0.23
14,R6I,-0.047 ± 0.21
15,Q54G,-0.203 ± 0.12
16,Q54L,-0.149 ± 0.11
17,Q54H,-0.117 ± 0.14
18,Q54K,-0.052 ± 0.13
19,Q54P,-0.036 ± 0.094
20,Q54S,0.013 ± 0.1
21,L35R,-0.863 ± 0.18
22,L35M,-0.036 ± 0.22
23,L35W,-0.552 ± 0.1
24,L35Q,-0.01 ± 0.14

row,Variant,abundance fitness
1,L35Y,-0.249 ± 0.26
2,Q66V,-0.038 ± 0.065
3,Q66H,0.108 ± 0.18
4,Q66G,0.038 ± 0.053
5,Q66D,-0.14 ± 0.12
6,Q66W,0.018 ± 0.086
7,G69Q,0.082 ± 0.15
8,G69S,-0.019 ± 0.073
9,G69Y,0.037 ± 0.26
10,G69I,-0.057 ± 0.15
11,G69N,-0.011 ± 0.22
12,G69V,0.105 ± 0.061
13,F29C,0.036 ± 0.15
14,F29W,0.031 ± 0.14
15,F29T,-0.135 ± 0.11
16,F29D,0.008 ± 0.18
17,F29A,0.008 ± 0.089
18,F29I,-0.112 ± 0.17
19,F29V,-0.072 ± 0.062
20,E7Q,-0.016 ± 0.13
21,E7I,-0.107 ± 0.34
22,R63M,0.132 ± 0.29
23,R63L,0.088 ± 0.12
24,R63C,0.097 ± 0.11

row,Variant,abundance fitness
1,R63P,-0.012 ± 0.09
2,R63I,0.113 ± 0.21
3,R63E,0.09 ± 0.093
4,Y50D,-0.693 ± 0.17
5,E31M,0.03 ± 0.19
6,E31F,-0.109 ± 0.16
7,E31R,0.004 ± 0.051
8,N36G,-0.087 ± 0.085
9,N36S,0.135 ± 0.084
10,N36F,0.114 ± 0.24
11,N36V,-0.098 ± 0.12
12,N36E,0.023 ± 0.12
13,Y55P,-1.07 ± 0.17
14,Y55H,-0.018 ± 0.27
15,Y55S,0.126 ± 0.12
16,Y55K,0.087 ± 0.12
17,L78W,-0.011 ± 0.07
18,L78S,-0.38 ± 0.091
19,L56G,0.016 ± 0.062
20,L56R,0.086 ± 0.071
21,L56P,0.124 ± 0.092
22,L56A,0.056 ± 0.075
23,L56H,0.13 ± 0.091
